T1: mIgM (Mus musculus, UniProt P01872)
T1 sequence (P01872 1-454): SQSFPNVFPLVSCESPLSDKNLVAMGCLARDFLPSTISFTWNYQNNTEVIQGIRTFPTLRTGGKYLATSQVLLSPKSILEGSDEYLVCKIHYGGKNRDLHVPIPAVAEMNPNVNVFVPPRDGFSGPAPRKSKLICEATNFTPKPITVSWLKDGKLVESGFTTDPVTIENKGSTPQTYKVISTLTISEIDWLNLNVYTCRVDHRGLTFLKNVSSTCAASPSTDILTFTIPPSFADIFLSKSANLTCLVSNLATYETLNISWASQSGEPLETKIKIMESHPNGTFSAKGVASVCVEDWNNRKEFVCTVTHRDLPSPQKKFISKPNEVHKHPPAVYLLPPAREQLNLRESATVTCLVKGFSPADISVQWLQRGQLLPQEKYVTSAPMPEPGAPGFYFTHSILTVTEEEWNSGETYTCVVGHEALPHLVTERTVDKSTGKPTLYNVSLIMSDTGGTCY


Key:
AM14 TLR9−/− B cells = assay: [3H]thymidine incorporation, BCR/TLR9 stimulation of AM14 TLR9-/- B cells; type: cell-based, mouse; conditions: at 5 mg/ml; 24 hours, then 6 hours pulse
Excerpt: (§1) The AM14 B cell receptor (BCR) transgenic mouse has been described previously (Sweet et al. (2010) Autoimmun 43(8): 607-18). Briefly, AM14 is a BCR comprising the AM14 heavy chain and the Vk8 light chain that recognizes murine IgG2a (mIgG2a) of the “a” allotype. Between 95-98% of B cells in a mouse positive for the AM14 heavy chain and Vk8 light chain express the AM14 BCR. To generate AM14 B cells that are deficient in TLR9, TLR7 or FcγRIIB, the AM14 and Vk8 genes were bred to the appropriate knock out mice.
(§2) Primary murine B cells were purified by positive selection using BD Imag™ CD45R/B220 magnetic particles (BD Biosciences, San Jose, Calif.). Briefly, B cells were cultured in RPMI containing, pencillin-streptomycin, β-mercaptoethanol, and 5% heat-inactivated fetal calf serum (FCS) in 96 well flat bottom plates at a density of 4×10^5 cells/well. For stimulation through the BCR and TLR9, B cells were treated with a titration of 0.3 μg/ml-0.03 μg/ml of PA4 or 5 μg/ml to 0.15 μg/ml of a DVD-Ig protein (DVD3751, DVD3752, DVD3754, DVD3755, DVD3759 and DVD3760), unless otherwise noted. Cells were also treated with 1 μg/ml 1826, an experimental ligand for TLR9, as a control. After 24 hours, the cells were pulsed for 6 hours with [3H]thymidine (Perkin Elmer, Waltham Mass.). Incorporation of [3H]thymidine was quantified via a liquid scintillation beta counter (Trilux 1450 MicroBeta, PerkinElmer) according to standard methods.
(§3) DVD-Ig proteins DVD3751-DVD3760 were characterized by ^3H incorporation at […] according to the method of Example 2.6.

DNA = assay: Antinuclear antibody (ANA) test; type: binding; conditions: ANA staining at 10 μg/ml
Protocol: The cloned BWR4 and PA4 antibodies as well as the DVD-Ig proteins were tested for ANA reactivity using the ANA test kit. Briefly, the DVD-Ig proteins and antibodies were diluted to […] in blocking buffer (1% BSA in PBS). The DVD-Ig proteins and antibodies were added to separate wells of an ANA slide at 50 μl/well and incubated in a moist chamber for 2 hours at room temperature (RT). The wells were then washed 3× with PBS. To detect bound antibodies, Alexa Fluor 488 conjugated goat α-human IgG (α-hIgG) was then added at a dilution of 1:1,000 and the slide incubated in a moist chamber for 1 hour. Unbound detecting antibody was removed by immersing the slide in a jar containing PBS and incubating for 10 minutes at RT with gentle rocking. The prior step was repeated 2× and 10 μl of Prolong® Gold Antifade was added to each well and a 24 mm×60 mm #1 cover glass seated on top. The covered slide was incubated overnight at RT and then sealed by applying clear nail polish to the edges. Binding of the DVD-Ig proteins and antibodies to the slides was assessed by fluorescence microscopy.
DVD-Ig proteins DVD3751-DVD3760 were characterized by antinuclear antibody (ANA) staining at 10 μg/ml according to the method of Example 2.4.
ANA: HEp-2 human tissue culture substrate slides were incubated with 5 μg/ml of the anti-DNA-IgG2a or the DVD-Ig™ binding protein for 2 hours at RT. The slides were washed and bound antibodies were detected with Alexa-488 goat anti-human antibody or DyLight 488 goat anti-mouse antibody.

mIgM = target: T1, mIgM; assay: IgM binding ELISA (mouse IgM); conditions: for potency in IgM binding assay: among DVD3751-DVD3760; for IgM Binding EC50: mIgM-coated ELISA, half-log dilution 10 μg/ml-0.01 μg/ml
Protocol: Reactivity of the DVD-Ig proteins with mIgM was determined by enzyme-linked immunosorbent assay (ELISA). Briefly, each well of an Ultra Cruz 96 well microtiter plate (Santa Cruz Biotechnology, Dallas, Tex.) was coated with mIgM at a concentration of 1 μg/ml in 100 μl of PBS. The plate was covered in plastic wrap and incubated overnight at 4° C. Each well of the plate was then washed 3× with 300 μl of PBST. After the final wash, 200 μl of blocking buffer (1% BSA in PBS) was added to each well and the plate incubated at RT for 2 hours. The plate was then washed as above. Rows B-H of the microtiter plate were filled with 100 μl of dilution buffer (1% BSA in PBST). The DVD-Ig proteins were then diluted to […] in dilution buffer and 147 μl of a DVD-Ig protein was added in duplicate to row A of a 96 well plate. For a ½ log dilution, 47 μl was transferred from row A to row B. The pipette tips were replaced with clean tips and 47 μl from row B was transferred to row C. The serial transfers were repeated as above until row G. To assess the binding of the secondary detection reagent to the coated IgM, the final transfer 47 μl was only transferred from G1-G10 to H1-H10 and wells H11 and H12 were left containing 100 μl of dilution buffer. To maintain a 100 μl assay volume, 47 μl was removed from wells H1-H10 and G11-G12 and discarded. After the serial dilution was completed, the plate was incubated for 1-2 hours at RT. The plate was washed as above and then 100 μl of horseradish peroxidase conjugated goat α-hIgG Fc specific, diluted 1:3,000 in dilution buffer, was added to each well. The plate was incubated for 1 hour at RT and then washed 4× as above. The plate was developed by adding 100 μl of 3′,3′,5′,5′-Tetramethylbenzidine (TMB) substrate solution to each well and incubating the plate in the dark for 10-15 minutes. The enzymatic reaction was stopped by adding 100 μl of 1M H2SO4 to each well. The plate was read at 450 nm on an EnVision 2102 multilabel reader (Perkin Elmer, Waltham, Mass.).
DVD-Ig proteins DVD3751-DVD3760 were characterized by IgM binding assay at half-log dilution starting at 10 μg/ml-0.01 μg/ml according to the method of Example 2.5.
IgM binding ELISA: Titrations of the DVD-Ig™ proteins (10 μg/ml to 0.01 μg/ml) were added to ELISA plates coated with murine IgM. Bound antibody was detected with biotinylated anti-human IgG and streptavidin-HRP. EC50 were calculated from the titration curve using Prism6.

AM14 WT B cells = assay: [3H]thymidine incorporation, BCR/TLR9 stimulation of AM14 WT B cells; type: cell-based, mouse; set-up: key to 3H incorporation AM14 WT, relative result: (X)-(XXX) indicates relative results; (XX): (X)-(XXX) indicates relative results; (X)-(XXX) indicates relative results; level of 3H incorporation / 3H incorporation AM14 WT: dose or concentration left out as unconfirmed; conditions: for 3H incorporation AM14 WT: 24 hours, then 6 hours pulse
Excerpt: as §1, §2, §3

Row | Molecule | 3H incorporation AM14 TLR9−/− (AM14 TLR9−/− B cells) | ANA score (DNA) | potency in IgM binding assay (mIgM) | IgM Binding EC50 (mIgM) | 3H incorporation AM14 WT, relative result (AM14 WT B cells) | 3H incorporation AM14 WT (AM14 WT B cells)
1 | DVD3757: DVD-Ig: VD1 mIgM (B7.6), SS linker, VD2 DNA(PA4); heavy SEQ ID NO 60, light 61 (antibody) heavy: QVQLKESGPGLVKPSLTLSLTCTVSGFSLNGYGVIWVRQPPGKGLEWMGVIWGNGNTNYNSTLKSRLSISRDTSKSQVFLKMNNLQTEDTAMYFCARSENYYSSPGYFAYWGQGTLVTVSSASTKGPEVQLVESGGGLVKPGGSLKLSCVASGFTFSTYAMSWVRQTPTKRLEWVATISRGGVSTYYPDTVKGRFTISRDNAKNTLYLQMSSLRSEDTAMYYCARPPTIVTTWFAYWGQGTLVTVSS light: NTVMTQSPTSMFISVGDRVTMNCKASQNVGSDVDWYQQKTGQSPKLLISGTSNRYTGVPDRFTGSGSGTDFTLTISNMQAEDLAVYYCLQYNYNPTFGAGTKLELKRTVAAPDVVMTQTPLSLPVSLGDQASISCRSSQSLVHSNGNTYLHWYLQKPGQSPKLLIYKVSNRFSGVPDRFSGSGSGTDFTLKISRVEAEDLGAYFCSQSTHVPYTFGGPTRLEIKR | (382) | 1 | highest potency | 0.04178 µg/mL | (X) | (4063)
2 | DVD3760: DVD-Ig: VD1 mIgM (B7.6), LS linker, VD2 DNA(PA4); heavy SEQ ID NO 66, light 67 (antibody) heavy: QVQLKESGPGLVKPSLTLSLTCTVSGFSLNGYGVIWVRQPPGKGLEWMGVIWGNGNTNYNSTLKSRLSISRDTSKSQVFLKMNNLQTEDTAMYFCARSENYYSSPGYFAYWGQGTLVTVSSASTKGPSVFPLAPEVQLVESGGGLVKPGGSLKLSCVASGFTFSTYAMSWVRQTPTKRLEWVATISRGGVSTYYPDTVKGRFTISRDNAKNTLYLQMSSLRSEDTAMYYCARPPTIVTTWFAYWGQGTLVTVSS light: NTVMTQSPTSMFISVGDRVTMNCKASQNVGSDVDWYQQKTGQSPKLLISGTSNRYTGVPDRFTGSGSGTDFTLTISNMQAEDLAVYYCLQYNYNPTFGAGTKLELKRTVAAPDVVMTQTPLSLPVSLGDQASISCRSSQSLVHSNGNTYLHWYLQKPGQSPKLLIYKVSNRFSGVPDRFSGSGSGTDFTLKISRVEAEDLGAYFCSQSTHVPYTFGGPTRLEIKR | (302) | 1 | highest potency | 0.03529 µg/mL | (X) | (4335)
3 | DVD3756: DVD-Ig: VD1 mIgM (B7.6), GS linker, VD2 DNA(PA4); heavy SEQ ID NO 58, light 59 (antibody) heavy: QVQLKESGPGLVKPSLTLSLTCTVSGFSLNGYGVIWVRQPPGKGLEWMGVIWGNGNTNYNSTLKSRLSISRDTSKSQVFLKMNNLQTEDTAMYFCARSENYYSSPGYFAYWGQGTLVTVSSGGGGSGGGGSEVQLVESGGGLVKPGGSLKLSCVASGFTFSTYAMSWVRQTPTKRLEWVATISRGGVSTYYPDTVKGRFTISRDNAKNTLYLQMSSLRSEDTAMYYCARPPTIVTTWFAYWGQGTLVTVSS light: NTVMTQSPTSMFISVGDRVTMNCKASQNVGSDVDWYQQKTGQSPKLLISGTSNRYTGVPDRFTGSGSGTDFTLTISNMQAEDLAVYYCLQYNYNPTFGAGTKLELKRGGSGGGGSGDVVMTQTPLSLPVSLGDQASISCRSSQSLVHSNGNTYLHWYLQKPGQSPKLLIYKVSNRFSGVPDRFSGSGSGTDFTLKISRVEAEDLGAYFCSQSTHVPYTFGGPTRLEIKR | (459) | 1 | highest potency | 0.0331 µg/mL | (X) | (7793)

— US20150125397A1, “DUAL SPECIFIC BINDING PROTEINS DIRECTED AGAINST IMMUNE CELL RECEPTORS AND AUTOANTIGENS” (ABBVIE INC., priority 2013, published 2015)
